“And” between values parts separate entries of the source, which are not always exact repeats. Identical values can stand only once.
B1: SEP3^ΔC (domain or fragment, A. thaliana)
chain: MGRGRVELKRIENKINRQVTFAKRRNGLLKKAYELSVLCDAEVALIIFSNRGKLYEFCSSSSMLRTLERYQKCNYGAPEPNVPSREALAVELSSQQEYLKLKERYDALQRTQRNLLGEDLGPLSTKELESLERQLDSSLKQIRALRTQFMLDQLNDLQSKLADG
notes: also called SEP3 truncation mutant; source: in vitro translated (pSPUTK, Promega SP6 High Yield Expression System), used without further purification
B2: SEP3^(75-178) construct (wild type) (domain or fragment, A. thaliana, UniProt O22456 75-178, looked up)
chain: YGAPEPNVPSREALAVELSSQQEYLKLKERYDALQRTQRNLLGEDLGPLSTKELESLERQLDSSLKQIRALRTQFMLDQLNDLQSKERMLTETNKTLRLRLADG
notes: cloned into pESPRIT002 (N-terminal 6x-His tag followed by a TEV site); also called SEP3 K-domain; oligomerisation domain of SEP3; source: E. coli BL21 (DE3) CodonPlusRIL, purified (Ni-Sepharose, TEV cleavage, Superdex 200 SEC); not shown: His6, N-terminal, cleaved
B3: SEP3^(75-178) L131V (domain or fragment, A. thaliana, UniProt O22456 75-178, looked up)
chain: YGAPEPNVPSREALAVELSSQQEYLKLKERYDALQRTQRNLLGEDLGPLSTKELESVERQLDSSLKQIRALRTQFMLDQLNDLQSKERMLTETNKTLRLRLADG
notes: made with SEP3^(75-178) as the template; source: E. coli Rosetta2 (DE3) pLysS, purified (Ni-Sepharose, TEV cleavage, Superdex 200 SEC); not shown: His6, N-terminal, cleaved
B4: SEP3^(75-178) Y98K (domain or fragment, A. thaliana, UniProt O22456 75-178, looked up)
chain: YGAPEPNVPSREALAVELSSQQEKLKLKERYDALQRTQRNLLGEDLGPLSTKELESLERQLDSSLKQIRALRTQFMLDQLNDLQSKERMLTETNKTLRLRLADG
notes: as for B3
B5: SEP3^(75-178) Y105N (domain or fragment, A. thaliana, UniProt O22456 75-178, looked up)
chain: YGAPEPNVPSREALAVELSSQQEYLKLKERNDALQRTQRNLLGEDLGPLSTKELESLERQLDSSLKQIRALRTQFMLDQLNDLQSKERMLTETNKTLRLRLADG
notes: as for B3
B6: SEP3^(75-178) L135A (domain or fragment, A. thaliana, UniProt O22456 75-178, looked up)
chain: YGAPEPNVPSREALAVELSSQQEYLKLKERYDALQRTQRNLLGEDLGPLSTKELESLERQADSSLKQIRALRTQFMLDQLNDLQSKERMLTETNKTLRLRLADG
notes: as for B3
B7: SEP3^(75-178) L115R (domain or fragment, A. thaliana, UniProt O22456 75-178, looked up)
chain: YGAPEPNVPSREALAVELSSQQEYLKLKERYDALQRTQRNRLGEDLGPLSTKELESLERQLDSSLKQIRALRTQFMLDQLNDLQSKERMLTETNKTLRLRLADG
notes: as for B3
B8: SEP3^(75-178) L135M (domain or fragment, A. thaliana, UniProt O22456 75-178, looked up)
chain: YGAPEPNVPSREALAVELSSQQEYLKLKERYDALQRTQRNLLGEDLGPLSTKELESLERQMDSSLKQIRALRTQFMLDQLNDLQSKERMLTETNKTLRLRLADG
notes: as for B3
B9: SEP3^L115R (natural protein, A. thaliana, UniProt O22456 1-251, looked up)
chain: MGRGRVELKRIENKINRQVTFAKRRNGLLKKAYELSVLCDAEVALIIFSNRGKLYEFCSSSSMLRTLERYQKCNYGAPEPNVPSREALAVELSSQQEYLKLKERYDALQRTQRNRLGEDLGPLSTKELESLERQLDSSLKQIRALRTQFMLDQLNDLQSKERMLTETNKTLRLRLADGYQMPLQLNPNQEEVDHYGRHHHQQQQHSQAFFQPLECEPILQIGYQGQQDGMGAGPSVNNYMLGWLPYDTNSI
notes: also called dimerisation-interface mutant; source: in vitro translated (pSPUTK, Promega SP6 High Yield Expression System), used without further purification
B10: SEP3^L171A (natural protein, A. thaliana, UniProt O22456 1-251, looked up)
chain: MGRGRVELKRIENKINRQVTFAKRRNGLLKKAYELSVLCDAEVALIIFSNRGKLYEFCSSSSMLRTLERYQKCNYGAPEPNVPSREALAVELSSQQEYLKLKERYDALQRTQRNLLGEDLGPLSTKELESLERQLDSSLKQIRALRTQFMLDQLNDLQSKERMLTETNKTARLRLADGYQMPLQLNPNQEEVDHYGRHHHQQQQHSQAFFQPLECEPILQIGYQGQQDGMGAGPSVNNYMLGWLPYDTNSI
notes: also called tetramerisation interface mutant; source: in vitro translated (pSPUTK, Promega SP6 High Yield Expression System), used without further purification

What was measured:
[1] = target: the molecule itself; assay: native gel or EMSA; in vitro translated proteins (4 ul TnT mix, not purified) with 5-10 nM DY-682 labelled 121 bp SOC1 promoter DNA with two CArG boxes; complexes seen on DNA, assigned as putative dimer and tetramer
[2] = target: the molecule itself; assay: SEC; Superdex 200 10/300 GL in Buffer A (30 mM Tris pH 8.0, 300 mM NaCl, 5% glycerol, 2 mM TCEP); oligomeric state against the wild type protein; self-association
[3] = target: the molecule itself; assay: native gel or EMSA; in vitro translated proteins (not purified) with Cy5 labelled SOC1 promoter DNA in which CArG box 1 or CArG box 2 is mutated (one site left)

Protein | stoichiometry N [2] | binding result [2] | other results
B1 | – | – | stoichiometry N [1]: 2
B2 | 4 and 2 | – | –
B3 | – | binds | –
B4 | 2 | – | –
B5 | 4 | – | –
B6 | – | binds | –
B7 | – | binds | –
B8 | 2 | – | –
B9 | – | – | stoichiometry N [1]: 2
B10 | – | – | stoichiometry N [3]: 4

From article PMC4701952, “Evolution of the Plant Reproduction Master Regulators LFY and the MADS Transcription Factors: The Role of Protein Structure in the Evolutionary Development of the Flower” (Frontiers in Plant Science, 2015)
